From patent US7935680B2, “Methods for modulating the axonal growth of central nervous system neurons” (Children's Medical Center Corporation, priority 1997, dated 2011)

Key:
[1] = tested on: rat retinal ganglion cells; test: Cell survival of purified rat retinal ganglion cells; format: cell-based; details: CNTF, rat RGCs
Method: Goldfish (Comet Variety, Mt. Parnell Fisheries, Mt. Parnell Pa.), 6-10 cm in length, were dark-adapted and their retinas dissected. Retinas were incubated with papain (20 μg/ml), activated with cysteine (2.8 mM) for 30 minutes at room temperature, then dissociated by gentle trituration. Repeated cycles of trituration and sedimentation yielded cultures nearly homogeneous in ganglion cells, which are readily identified by their oval shape, phase-bright appearance, size (diameter 15 μm), and extension of only 1 or 2 neurites of uniform caliber; these criteria have been verified by retrograde labeling (see Schwartz & Agranoff, Brain Res. 206: 331-343, 1981 and Schwalb et al., J. Neuroscience 15: 5514-5625, 1995, the contents of which are incorporated herein by reference). […]
In a typical experiment, samples were plated in quadruplicate in randomized positions of a 24-well plate and the code was concealed to ensure that growth was evaluated in a blinded fashion. […] Growth and survival were assessed after 6 days for all ganglion cells in 25 consecutive fields of each well using phase contrast microscopy at 400× magnification (c. 150 ganglion cells counted per well). […] After the completion of counting, the code was broken, the data tabulated, and means and standard errors were calculated for the 4 replicate wells of each sample using Cricket Graph (CA Associates, Islandia, N.Y.). […]

[2] = tested on: rat retinal ganglion cells; test: Axonal outgrowth from purified rat retinal ganglion cells; format: cell-based; details: CNTF, rat RGCs
Method: Goldfish (Comet Variety, Mt. Parnell Fisheries, Mt. Parnell Pa.), 6-10 cm in length, were dark-adapted and their retinas dissected. Retinas were incubated with papain (20 μg/ml), activated with cysteine (2.8 mM) for 30 minutes at room temperature, then dissociated by gentle trituration. Repeated cycles of trituration and sedimentation yielded cultures nearly homogeneous in ganglion cells, which are readily identified by their oval shape, phase-bright appearance, size (diameter 15 μm), and extension of only 1 or 2 neurites of uniform caliber; these criteria have been verified by retrograde labeling (see Schwartz & Agranoff, Brain Res. 206: 331-343, 1981 and Schwalb et al., J. Neuroscience 15: 5514-5625, 1995, the contents of which are incorporated herein by reference). Low density cultures were achieved by plating c. 5×10^3 cells/well into poly L-lysine coated, 24-well culture dishes (Costar, Cambridge, Mass.). Cells were maintained at 21° C. in serum free, defined media containing insulin, selenium, transferrin, bovine serum albumin, catalase, superoxide dismutase, hormones, and vitamins in Eagle's L-15 media as described in Schwalb et al., 1995, the contents of which are incorporated herein by reference). Dissociated cultures of purified rat retinal ganglion cells were prepared by immunopanning as described in Barres et al., Neuron, 1: 791-803, 1988, the contents of which are incorporated herein by reference). In brief, retinas from postnatal day 8 Sparague-Dawley rats were dissociated using papain activated with cysteine. Macrophages were removed by incubation with an anti-rat macrophage antibody (Accurate) followed by immunopanning with an anti-rabbit 1gG antibody. Ganglion cells were isolated by immunopanning with an anti-Thy-1 antibody, then dislodged with trypsin for use in low-density cultures. Rat retinal ganglion cells were maintained at 37° C. in a CO2 incubator using the same medium described above except for the presence of 30 mM bicarbonate.
In a typical experiment, samples were plated in quadruplicate in randomized positions of a 24-well plate and the code was concealed to ensure that growth was evaluated in a blinded fashion. Each experiment contained 4 wells of a negative control (media plus supplements only) and 4 wells of a positive control (a standardized AF-1 sample of known activity). Growth and survival were assessed after 6 days for all ganglion cells in 25 consecutive fields of each well using phase contrast microscopy at 400× magnification (c. 150 ganglion cells counted per well). Extension of a process 5 cell diameters in length was the criterion for growth, since it clearly distinguishes stimulated cells from negative controls (see Schwalb et al., 1995). After the completion of counting, the code was broken, the data tabulated, and means and standard errors were calculated for the 4 replicate wells of each sample using Cricket Graph (CA Associates, Islandia, N.Y.). Data were normalized by subtracting the growth in the negative controls (usually 4-5%) and dividing by the net growth in the positive controls. In the most favorable experiments, more than 50% of retinal ganglion cells (RGCs) exposed to AF-1 extended axons 5 cell diameters in length after 6 days. Group comparisons were based upon pairwise, 2-tailed Student's t-tests. Several independent experiments were performed for most samples, as noted in the figure legends. In some cases, cell viability was assessed with the dye 5,6-carboxyfluorescein diacetate. […]

B1: CNTF: Ciliary neurotrophic factor (protein, UniProt P26441 1-200, looked up)
Ciliary neurotrophic factor: MAFTEHSPLTPHRRDLCSRSIWLARKIRSDLTALTESYVKHQGLNKNINLDSADGMPVASTDQWSELTEAERLQENLQAYRTFHVLLARLLEDQQVHFTPTEGDFHQAIHTLLLQVAAFAYQIEELMILLEYKIPRNEADGMPINVGDGGLFEKKLWGLKVLQELSQWTVRSIHDLRFISSHQTGIPARGSHYIANNKKM
Q: B1 was tested. Which cell survival [1] did it give?
A: The cell survival was “enhanced cell survival”.

Q: And the “outgrowth compared with inosine” value [2]?
A: The value was “much larger increase in outgrowth”.
